{
  "source": "patent US11396522B2",
  "about": "“Bis-acetal-based substrates for imaging exo-glycosidase activity” (ALECTOS THERAPEUTICS INC., priority 2017, dated 2022)",
  "proteins": {"B1": {"name": "GBA1 (Homo sapiens) (protein)", "chain": "ARPCIPKSFGYSSVVCVCNATYCDSFDPPTFPALGTFSRYESTRSGRRMELSMGPIQANHTGTGLLLTLQPEQKFQKVKGFGGAMTDAAALNILALSPPAQNLLLKSYFSEEGIGYNIIRVPMASCDFSIRTYTYADTPDDFQLHNFSLPEEDTKLKIPLIHRALQLAQRPVSLLASPWTSPTWLKTNGAVNGKGSLKGQPGDIYHQTWARYFVKFLDAYAEHKLQFWAVTAENEPSAGLLSGYPFQCLGFTPEHQRDFIARDLGPTLANSTHHNVRLLMLDDQRLLLPHWAKVVLTDPEAAKYVHGIAVHWYLDFLAPAKATLGETHRLFPNTMLFASEACVGSKFWEQSVRLGSWDRGMQYSHSIITNLLYHVVGWTDWNLALNPEGGPNWVRNFVDSPIIVDITKDTFYKQPMFYHLGHFSKFIPEGSQRVGLVASQKNDLDAVALMHPDGSAVVVVLNRSSKDVPLTIKDPAVGFLETISPGYSIHTYLWRRQ", "notes": "purchased R&D Systems"}, "B2": {"name": "human O-GlcNAcase (hOGA) (Homo sapiens) (protein)", "chain": "MVQKESQATLEERESELSSNPAASAGASLEPPAAPAPGEDNPAGAGGAAVAGAAGGARRFLCGVVEGFYGRPWVMEQRKELFRRLQKWELNTYLYAPKDDYKHRMFWREMYSVEEAEQLMTLISAAREYEIEFIYAISPGLDITFSNPKEVSTLKRKLDQVSQFGCRSFALLFDDIDHNMCAADKEVFSSFAHAQVSITNEIYQYLGEPETFLFCPTEYCGTFCYPNVSQSPYLRTVGEKLLPGIEVLWTGPKVVSKEIPVESIEEVSKIIKRAPVIWDNIHANDYDQKRLFLGPYKGRSTELIPRLKGVLTNPNCEFEANYVAIHTLATWYKSNMNGVRKDVVMTDSEDSTVSIQIKLENEGSDEDIETDVLYSPQMALKLALTEWLQEFGVPHQYSSRQVAHSGAKASVVDGTPLVAAPSLNATTVVTTVYQEPIMSQGAALSGEPTTLTKEEEKKQPDEEPMDMVVEKQEETDHKNDNQILSEIVEAKMAEELKPMDTDKESIAESKSPEMSMQEDCISDIAPMQTDEQTNKEQFVPGPNEKPLYTAEPVTLEDLQLLADLFYLPYEHGPKGAQMLREFQWLRANSSVVSVNCKGKDSEKIEEWRSRAAKFEEMCGLVMGMFTRLSNCANRTILYDMYSYVWDIKSIMSMVKSFVQWLGCRSHSSAQFLIGDQEPWAFRGGLAGEFQRLLPIDGANDLFFQPPPLTPTSKVYTIRPYFPKDEASVYKICREMYDDGVGLPFQSQPDLIGDKLVGGLLSLSLDYCFVLEDEDGICGYALGTVDVTPFIKKCKISWIPFMQEKYTKPNGDKELSEAEKIMLSFHEEQEVLPETFLANFPSLIKMDIHKKVTDPSVAKSMMACLLSSLKANGSRGAFCEVRPDDKRILEFYSKLGCFEIAKMEGFPKDVVILGRSL", "notes": "started by addition of hOGA (WT, Full-length, expressed in E. coli. as previously described); made in house; host or cells: E. coli"}},
  "assay_type_in_all_cases": "biochemical, human",
  "key": {"[1]": {"substrate": "CN(C)c1ccc(/N=N/c2ccc(C(=O)NCc3cn(CCOCCOC(CC(=O)NCCNc4cccc5c(S(=O)(=O)O)cccc45)O[C@@H]4O[C@H](CO)[C@@H](O)[C@H](O)[C@H]4O)nn3)cc2)cc1", "assay": "In vitro kinetic assay with GBA1", "conditions": "other: 20 nM GBA1, initial rates"}, "[2]": {"substrate": "CC(=O)N[C@H]1[C@H](O[C@@H](OCCOCCn2cc(CNC(=O)c3ccc(/N=N/c4ccc(N(C)C)cc4)cc3)nn2)[C@@](C)(Br)C(=O)NCCNc2cccc3c(S(=O)(=O)O)cccc23)O[C@H](CO)[C@@H](O)[C@@H]1O", "assay": "In vitro kinetic assay with hOGA", "conditions": "other: PBS, 37° C., recombinant hOGA", "procedure": "(§1) For some experiments, fluorescence kinetic assays were performed using a Varian Cary Eclipse Spectrophotometer set for 335/493 nm excitation/emission wavelengths. Slits were set at 10 nm and the detector was set on Medium voltage. Enzymatic reactions with human OGA were carried out in PBS at 37° C. and were started by addition of hOGA (WT, Full-length, expressed in E. coli. as previously described) in a total volume of 160 μL (Starna sub-micro Fluorometer cuvette). For measurements of rates using different concentrations of substrates, a hOGA concentration of 100 nM was used. For hOGA titration, 25 μM of Glyco-BABS were added to various concentration of hOGA. […] EDANS standard curve was established using endpoint fluorescence measurements of serial dilutions of EDANS in the relevant buffer using the same instrument parameters. Inner-Filter effect measurements were carried out in cuvette by measuring fluorescence of several concentrations of EDANS in presence of various concentrations of GlcNAc-BABS. Kinetics with Glc-BABS and GBA enzymes (GBA1 and GBA3 purchased from R&D Systems), kinetics with GALC (R&D systems) and Gal-BABS, pH stability, quenching efficiency, some inner-filter effect experiments and lysates experiments were carried out using a Molecular Devices SpectraMax i3× plate reader. […]"}, "[3]": {"substrate": "CC(=O)N[C@H]1[C@H](O[C@@H](OCCOCCn2cc(CNC(=O)c3ccc(/N=N/c4ccc(N(C)C)cc4)cc3)nn2)[C@@](C)(O)C(=O)NCCNc2cccc3c(S(=O)(=O)O)cccc23)O[C@H](CO)[C@@H](O)[C@@H]1O", "assay": "In vitro kinetic assay with hOGA", "conditions": "other: PBS, 37° C., recombinant hOGA", "procedure": "as §1"}},
  "data": [
    {"protein": "B1", "values": [
      {"measurement": "kcat/Km", "setting": "[1]", "value": 130, "unit": "M⁻¹ s⁻¹"}
    ]},
    {"protein": "B2", "values": [
      {"measurement": "kcat/Km", "setting": "[2]", "value": 263, "unit": "M⁻¹ s⁻¹"},
      {"measurement": "kcat/Km", "setting": "[3]", "value": 519, "unit": "M⁻¹ s⁻¹"}
    ]}
  ]
}
